Patent publication US20250277030A1, “ANTI-NAPI2B ANTIBODIES AND METHODS OF USE” (Zymeworks BC Inc., priority 2022, published 2025)

Key:
[1] = molecular target: T1, NaPi2b expressed on HCC-78 cells (Homo sapiens, UniProt O95436); test: Cellular binding of antibody and ADCs to HCC-78 cells by flow cytometry (Example 14)
T1 construct: endogenous in cells; host or cells: HCC-78
T1 sequence (O95436 1-690): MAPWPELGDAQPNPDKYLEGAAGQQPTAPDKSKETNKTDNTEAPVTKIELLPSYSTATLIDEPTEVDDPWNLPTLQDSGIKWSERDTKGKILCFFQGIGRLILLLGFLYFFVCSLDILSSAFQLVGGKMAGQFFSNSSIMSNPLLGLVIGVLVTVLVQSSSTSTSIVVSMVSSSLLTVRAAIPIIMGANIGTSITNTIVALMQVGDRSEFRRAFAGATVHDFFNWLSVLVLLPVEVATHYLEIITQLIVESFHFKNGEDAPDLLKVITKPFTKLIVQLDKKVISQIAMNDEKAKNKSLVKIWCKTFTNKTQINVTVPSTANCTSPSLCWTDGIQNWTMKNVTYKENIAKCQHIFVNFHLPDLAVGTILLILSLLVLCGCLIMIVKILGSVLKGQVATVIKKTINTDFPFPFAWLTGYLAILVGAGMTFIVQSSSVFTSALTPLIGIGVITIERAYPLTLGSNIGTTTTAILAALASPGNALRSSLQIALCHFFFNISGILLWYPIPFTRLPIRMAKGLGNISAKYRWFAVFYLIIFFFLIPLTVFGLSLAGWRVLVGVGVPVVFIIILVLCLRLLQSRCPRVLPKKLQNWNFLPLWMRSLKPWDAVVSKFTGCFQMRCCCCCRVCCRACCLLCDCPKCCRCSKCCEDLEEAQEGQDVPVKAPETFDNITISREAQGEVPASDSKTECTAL
Description: Briefly, HEK293-6e cells were transfected for ˜24 hours to transiently express human NaPi2b, cynomolgus or mouse NaPi2b, at 1 μg of DNA per 1 million cells. Following transfection, 50,000 cells per well were seeded in V-bottom 96-well plates and incubated with 200 nM of primary antibody for 18-24 hours at 4° C. to prevent internalization. Post-incubation, cells were washed and stained with anti-Human IgG Fc AF647 conjugate (Jackson Immuno Research Labs, West Grove, PA, Cat. No. 109-605-098, Lot. No. 124868) at 4° C. for 1 hour. Following staining and washing, fluorescence was detected by flow cytometry on BD LSRFortessa™ Cell Analyzer (BD Biosciences, Franklin Lake, NJ) with 10,000 minimum events collected per well. The AF647/APC-A GeoMean (fluorescence signal geometric mean, proportional to anti-Human AF647 binding) was calculated for the live singlet cell population for each primary antibody using FlowJo™ v8 software (BD Biosciences, Franklin Lake, NJ). The Bmax and Kd of each primary antibody were calculated using GraphPad Prism Version 9 (GraphPad Software, San Diego, CA)
The ability of ADCs to bind to cells expressing NaPi2b was assessed. […] Binding to endogenous high NaPi2b-expressing cell lines IGROV-1 and HCC-78 was assessed by flow cytometry according to methods described in Example 5.

NCI-H441 cells = test: Internalization by flow cytometry in NCI-H441 cells; type: cell-based, human; settings: antibody 10 nM
Description: Briefly, antibodies were fluorescently labeled by coupling to a Fab fragment AF488 conjugate targeting anti-Human IgG Fe (Jackson Immuno Research Labs, West Grove, PA; Cat. No. 109-547-008) at a 1:1 molar ratio in PBS pH 7.4 (Thermo Fisher Scientific, Waltham, MA; Cat. No. 10010-023), for 24 hours at 4° C. Cells were seeded at 50,000 cells/well in RPMI 1640, ATCC modification (Thermo Fisher Scientific, Waltham, MA) supplemented with 10% fetal bovine serum (Thermo Fisher Scientific, Waltham, MA) in 48-well plates and incubated overnight under standard culturing conditions (37° C./5% CO2) to allow attachment. […] Following incubation, cells were dissociated, washed, and surface AF488 fluorescence was quenched using an anti-AF488 antibody (Life Technologies, Carlsbad, CA; Cat. No. A-11094) at 100 nM for 30 minutes at 4° C. […] (internalized fluorescence) was detected by flow cytometry on a BD LSRFortessa™ Cell Analyzer (BD Biosciences, Franklin Lake, NJ) with 1,000 minimum events collected per well. The AF488/FITC-A GeoMean (fluorescence signal geometric mean, proportional to anti-Human Fab AF488 labelling) was calculated for the live single cell population using FlowJo™ Version 10.8.1 (BD Biosciences, Franklin Lake, NJ) and plotted using GraphPad Prism Version 9 (GraphPad Software, San Diego, CA).

[2] = molecular target: T2, NaPi2b expressed on IGROV-1 cells (Homo sapiens, UniProt O95436); test: Cellular binding to IGROV-1 cells by flow cytometry (Example 19); settings: NB = no binding (apparent Kd >150 nM)
T2 construct: IGROV-1 cells express endogenous NaPi2b at a high level; endogenous in cells; host or cells: IGROV-1
T2 sequence (O95436 1-690): T1 sequence (O95436 1-690)
Description: Briefly, cells were seeded at 50,000 cells/well in conical-bottom 96-well plates and treated with test antibody for 24 hours at 4° C. to prevent internalization. Palivizumab (anti-RSV antibody, v22277) was included as a negative control. […] Following incubation, cells were washed and stained with anti-Human IgG Fc AF647 conjugate (Jackson Immuno Research Labs, West Grove, PA; Cat. No. 109-605-098) at 4° C. for 30 min. Following incubation and washing, fluorescence was detected by flow cytometry on a BD LSRFortessa™ Cell Analyzer (BD Biosciences, Franklin Lake, NJ) with 1,000 minimum events collected per well. The AF647/APC-A GeoMean (fluorescence signal geometric mean, proportional to anti-Human AF647 binding) was calculated for the live cell population using FlowJo™ Version 10.8.1 (BD Biosciences, Franklin Lake, NJ) and plotted for each test antibody using GraphPad Prism Version 9 (GraphPad Software, San Diego, CA).
The ability of the humanized antibody variants v38591 and v29456 to bind to NaPi2b expressed on cells was assessed on endogenous NaPi2b-expressing tumor cell lines IGROV-1 (ovarian adenocarcinoma) and TOV-21G (ovarian carcinoma) by flow cytometry. IGROV-1 and TOV-21G cells express endogenous NaPi2b at high and moderate levels, respectively, as described in Example 10.
Cellular binding was performed according to methods described in Example 13.

How did the “Binding to HCC-78 cells, in words” value [1] turn out when “v22277: anti-RSV antibody palivizumab, negative control; has a heterodimeric Fc [reference compound]” was run?
Its value is “did not bind”.

And the “Internalized Fluorescence Fold-Over Palivizumab” value (NCI-H441 cells; NCI-H441, 5 hrs)?
The value was 1.0 fold.

What about the “Internalized Fluorescence Fold-Over Palivizumab” value (NCI-H441 cells; NCI-H441, 24 hrs) of the same substance?
Its value is 1.0 fold.

What about the Kd [2] of the same substance?
The Kd was greater than 0.15 µM.
